Results: the Human Domainome abundance scans (Beltran et al. 2025)
± gives the uncertainty stated by the source.

B1: Receptor-interacting serine/threonine-protein kinase 2, residues 438 to 518; numbered along this chain, O43353 (parent)
chain: QWIQSKREDIVNQMTEACLNQSLDALLSRDLIMKEDYELVSTKPTRTSKVRQLLDTTDIQGEEFAKVIVQKLKDNKQMGLQ

Variants of: B1
Assay: abundance fitness (aPCA) (normalised: wild type 0, dead -1); higher = more abundant; growth selection in yeast, the domain comes from the species named
Conditions: Homo sapiens

Abundance fitness: each site, then its substitutions
G61: A -0.378 ± 0.1, C -0.083 ± 0.078, N -0.055 ± 0.16, M -0.947 ± 0.45, E -0.125 ± 0.15, V -0.253 ± 0.09, T -0.085 ± 0.13, Y -0.279 ± 0.14, F -0.604 ± 0.29, K 0.024 ± 0.19, Q -0.243 ± 0.094, D -0.022 ± 0.14, L -0.531 ± 0.089, R -0.155 ± 0.054, P -0.596 ± 0.086, I -0.935 ± 0.32
K66: P -0.471 ± 0.059, H -0.459 ± 0.12, Q -0.135 ± 0.074, I -0.757 ± 0.21, G -0.182 ± 0.042, F -1.05 ± 0.47, A -0.172 ± 0.069, R -0.166 ± 0.048, N -0.58 ± 0.43, E 0.096 ± 0.08, Y -0.874 ± 0.42, L -0.555 ± 0.062, V -0.702 ± 0.074, T -0.187 ± 0.13, D -0.401 ± 0.2, M -0.192 ± 0.14
I59: C -0.029 ± 0.26, Y -0.342 ± 0.29, K 0.17 ± 0.26, V -0.171 ± 0.2, S -0.29 ± 0.27, G 0.143 ± 0.29, L 0.231 ± 0.23
S48: C -0.293 ± 0.1, N -0.892 ± 0.28, E 0.542 ± 0.19, V -0.534 ± 0.11, L -0.04 ± 0.075, W -0.819 ± 0.13, F -0.527 ± 0.22, G -0.11 ± 0.055, T -0.224 ± 0.1, A 0.072 ± 0.06, I -0.923 ± 0.23, M -0.142 ± 0.16, Q 0.123 ± 0.099, P -0.651 ± 0.089, H -0.47 ± 0.2, Y -0.644 ± 0.21, D 0.065 ± 0.096, R -0.466 ± 0.065
R46: V -0.045 ± 0.034, W -0.796 ± 0.072
E63: I -0.538 ± 0.14, L -0.684 ± 0.087, F -0.972 ± 0.18, Q -0.485 ± 0.28, V -0.592 ± 0.084, P -0.432 ± 0.068, C -0.527 ± 0.12, H -0.734 ± 0.18, N -0.646 ± 0.19, Y -0.839 ± 0.26, R -0.413 ± 0.062, G -0.475 ± 0.08, T -0.362 ± 0.083, K -0.441 ± 0.18, D -0.3 ± 0.22
Q52: A 0.082 ± 0.074, K -0.442 ± 0.24, L -0.57 ± 0.084, M -0.42 ± 0.12, Y -0.77 ± 0.41, D -0.526 ± 0.25, C -0.203 ± 0.12, E -0.512 ± 0.089, H -0.493 ± 0.15, S -0.196 ± 0.045, V -0.603 ± 0.081, P -0.551 ± 0.079, F -0.403 ± 0.14, W -0.011 ± 0.058, G -0.556 ± 0.056
D55: C -0.122 ± 0.092, T -0.313 ± 0.071, W -0.475 ± 0.064, I -0.168 ± 0.11, Q -0.277 ± 0.13, N -0.347 ± 0.16, Y -0.445 ± 0.071, S -0.153 ± 0.055, P -0.676 ± 0.079, G -0.51 ± 0.05, E -0.015 ± 0.09, R -0.162 ± 0.046, V -0.27 ± 0.065, M -0.03 ± 0.14, K -0.469 ± 0.23, L -0.132 ± 0.055, H -0.665 ± 0.16
A65: H -0.44 ± 0.081, K -0.708 ± 0.17, N -0.389 ± 0.18, Q -0.743 ± 0.16, Y -0.691 ± 0.12, P -0.554 ± 0.062, E -0.456 ± 0.15, G -0.6 ± 0.058, S -0.457 ± 0.062, R -0.649 ± 0.077, L -0.949 ± 0.097, F -1.12 ± 0.23, C -0.624 ± 0.12, V -0.933 ± 0.1, T -0.85 ± 0.12, D -0.569 ± 0.13
V50: I -0.524 ± 0.16, G -0.679 ± 0.071, H -0.696 ± 0.21, E -0.538 ± 0.18, W -0.903 ± 0.15, L -0.817 ± 0.088, P -0.53 ± 0.066, R -0.802 ± 0.079, S -0.389 ± 0.053, A -0.842 ± 0.089, Y -0.761 ± 0.35, Q -0.612 ± 0.1, T -0.505 ± 0.095, N -0.737 ± 0.2, D -0.493 ± 0.22
L54: P -0.553 ± 0.099, A -0.345 ± 0.097, C -0.45 ± 0.06, F -0.936 ± 0.31, D -0.452 ± 0.2, Y -0.814 ± 0.22, E -0.3 ± 0.22, W -1.08 ± 0.16, K -0.408 ± 0.25, V -0.777 ± 0.097, H -0.542 ± 0.14, R -0.475 ± 0.048, M -0.622 ± 0.17, S -0.649 ± 0.079, Q -0.646 ± 0.12, G -0.519 ± 0.045, T -0.925 ± 0.21
Q60: P -0.283 ± 0.06, R -0.057 ± 0.047, K -0.361 ± 0.14, Y -0.008 ± 0.11, T -0.412 ± 0.08, E -0.021 ± 0.17, H -0.199 ± 0.089, F -0.378 ± 0.16, V -0.267 ± 0.056, I -0.302 ± 0.15, N -0.353 ± 0.1, A -0.08 ± 0.053, C -0.054 ± 0.065
